{"source": "the domain aggregation screens of Martell et al. (2025)"}
{"assay": "soluble fraction after stress (log2 fold change); higher = more stays soluble; pooled small domains, quantitative proteomics", "details": "stress: pH 4", "in_short": "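High-throughput quantitative proteomics was run on pooled custom libraries of small protein domains following pH 4 stress. Fold changes are on a log2 scale; higher values mean more of a domain remained soluble. The fold change in soluble amount is taken as a measure of aggregation propensity.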"}
{"sequence": "HMKEIPTKKGDMLEIYEANGKYILKYPTFNITMPEVVKEIPKEAVDSYLAGKHDGEELINYANFGFWKS", "soluble fraction (log2)": 0.315}
{"sequence": "HMKEKDAYTSEILDTLKNAKLLVVEGTVYPLLTRLKNDGLLNYRWEESTSGPPRKYYGLTDEG", "soluble fraction (log2)": -0.449}
{"sequence": "HMKEKIIKEPYDLFTTDKIGQALEVQALLARQGIKVQRRVDGTKSTLFLENYTQSEKDQALLAVVRSGIV", "soluble fraction (log2)": 0.167}
{"sequence": "HMKEKPLWAIRITELREEHYFTQTDVSKALGIAQTTYAGYETGRHEPDFETMIKIADIYKVSLDYLIGR", "soluble fraction (log2)": -0.288}
{"sequence": "HMKELFETLPDVLDAKLLASALSISKAGAYQLLNRPDFPTLQVGGWKLVTKQKLALWMEQHTN", "soluble fraction (log2)": -0.511}
{"sequence": "HMKELFGQRLREQRLKQNLTLEQLAEKANLSPNYVGMVERGLKEPGLATIVKLLNGLNVSADTLL", "soluble fraction (log2)": 0.155}
{"sequence": "HMKELLTKQQREEILETVKTKTPKDFGYTAEHWTTGFLGKWIEEHYEVEYKSKTSLYLVFKKASFTYHKPG", "soluble fraction (log2)": 0.0606}
{"sequence": "HMKELTARQIEILDFITNYEWRHGYWPSIRNIQVQFSYKSTNAVMGHLRALERKGAIERIPGQARTFRIH", "soluble fraction (log2)": 0.102}
{"sequence": "HMKEPFETMPDVMDAKQIAEALQISKAGAYNLLNSPDFPTLRIGGRKLVMKNELVEWLKSHTNRK", "soluble fraction (log2)": 0.126}
{"sequence": "HMKEPPTLEEIKNYFASKLSTELESEKFFNYFESNGWLVGGKTPMKNWQSAANNWLINMSKFN", "soluble fraction (log2)": -0.323}
{"sequence": "HMKEPQLGPVRKWSDQTGNFGIEAQFVKREGDNILLKRADQRTISIPLEKLSDADQEHLKQEEQKQAME", "soluble fraction (log2)": -0.312}
{"sequence": "HMKEQLEAYVNRLFADAALTIRNAEVRQEILQHALDRYDDLIASGKTEQEAYDETVSGIGDVSGLYEHK", "soluble fraction (log2)": -0.526}
{"sequence": "HMKETKVIHVHLIFKKTSRFFGSISAIYSEFTAEEIGITEETLRHKGLSDGVSFATKKAIIQQGVLIR", "soluble fraction (log2)": -1.45}
{"sequence": "HMKEVDSESAFAERGISEVWIPALQKMGILTLEALDAANPNKVFNDLGGMRKKLKIDAAMPTKDEVTAWIQ", "soluble fraction (log2)": -0.053}
{"sequence": "HMKEVKPSDFFLSKLDEDHNLIEKFNALSSFKQKEFIEYIDSAKQEKTKHDRFEKIKPILLSNIGLNDKYR", "soluble fraction (log2)": -0.102}
{"sequence": "HMKEVVVPDYFLKQLQKNKKAFITFNNFSPSHKREYVEWITEAKTEETKNRRMKSAIEWMSEGKSRNWKYI", "soluble fraction (log2)": 0.22}
{"sequence": "HMKFGETLIDLRKRNGLTQEELAAKLYVTRQAVSRWERGEVTPGIDMLKLIANVLNEPVAHLLDW", "soluble fraction (log2)": -0.435}
{"sequence": "HMKFNRPMSEILQEWENKLGTTSDAELAGLIGVVTMTINRWRKNETKPDLSALNRYDRIVNLVVNNIKQL", "soluble fraction (log2)": -0.321}
{"sequence": "HMKFPPELVEFIEGLSLLKPPLNYATVHRRAEKLAIKKGWASPSYSTVRNIIRKLSPALTTLAHEG", "soluble fraction (log2)": 0.22}
{"sequence": "HMKGAADPAIKQKVLDYLDTVEKAKSKEIAKAISEEKSAVDLAVKELAFEDKVEYLYITTTFVALKGKVA", "soluble fraction (log2)": -0.865}
{"sequence": "HMKGALQIAIEEGFNWNLDKKYWNIVQSTVIAKRLGLKTTSGLKEAIEGMGGEYKRTKKARGYLVPTFKD", "soluble fraction (log2)": 0.354}
{"sequence": "HMKGDYWIIDLDKNYQYAIISEPDRQYLWILSRSPNMDTQTLETLKEKIRSKGFDLTYLKQTL", "soluble fraction (log2)": -1.24}
{"sequence": "HMKGHQASTTWISERVKDIIKEDPTLGARKLQKRLEIHYNIELSYFKVWSGKNLQWMIFMVL", "soluble fraction (log2)": 0.00439}
{"sequence": "HMKGSYTVKSGDNLWSIARKFYGGSGSTWTKIYSANKSTIESTARRYGRSSSDNGHWIYPGTVLVIP", "soluble fraction (log2)": 0.405}
{"sequence": "HMKGVSFEEIERAVRTAQNPEADETAQQHAGMVFSRMEGNELFDKLVQSSSTIGKKITGLMDYYL", "soluble fraction (log2)": -0.378}
{"sequence": "HMKGYIGESKARNIALKKAPGASITKFEFDKDDGIAVYEVELRKGIYEYELKINAVTGAIIEFEKDIE", "soluble fraction (log2)": 0.147}
{"sequence": "HMKHKYWEIKERIKKDILNEVYKKGESIPSERDLAGIYDVTRVTVQKAMAMLVQEGYIERIHGKGMFVLKN", "soluble fraction (log2)": -0.0581}
{"sequence": "HMKHRFVVGEVLSIGKLQHEITLKTAQGERKFQLDKQDLPASIQDGAKVRAELNEAGRVIDVHPLK", "soluble fraction (log2)": -0.178}
{"sequence": "HMKHYMKITDISLQTRDKNRVNVSVDGKYRFSLDVFQVGELGLKVGREYTDEELTALEDESQFG", "soluble fraction (log2)": 0.0815}
{"sequence": "HMKIATIELVKEAVKSKLGKFTKRDIMELVPSVGKTTIENMLKQLIGEGYIERHGKGRATFYVK", "soluble fraction (log2)": 0.158}
{"sequence": "HMKIDANTFTSIEKQLFVLLSKTPTPMGSIFVALAKEDKEAVWEVIHFLEAENRLIMNEDGTIQL", "soluble fraction (log2)": -1.09}
{"sequence": "HMKIDEVSFAYIERTLFSMLGKLPTPVNKVIATIGEEKKETIWEVIRFLESENKLITNEDGTLQL", "soluble fraction (log2)": -1.77}
{"sequence": "HMKIDNIIIYITGGVKKEGVYELPDGSRISDAIEQAEGLKANADTSSINLAYKLEDGMKIKIPLQGEN", "soluble fraction (log2)": -0.664}
{"sequence": "HMKIDNPEYQKIMDMIPYFFQTRNYDEAIEALSYVIEQEPSFSEAYNKRATFYFMMGDFENSMKDIESTLA", "soluble fraction (log2)": -0.75}
{"sequence": "HMKIEEVIEKLKTDSIISRKEYEDIVRQINPNLSDRTIFWQLAKLQDMGVLQKIGQNSFHVRN", "soluble fraction (log2)": 0.0251}
{"sequence": "HMKIERKGDESYLSFVERATSALSDGLIDYQQWGRAVVGEDLYSEENTRRIAKFFAQFIQNLEND", "soluble fraction (log2)": -1.6}
{"sequence": "HMKIKAKYTTDFGIRIYAPKPGKNYWRISYVDLDGKLRDTTATSEKTALDKSAEIEVLLRNN", "soluble fraction (log2)": -0.232}
{"sequence": "HMKILALETSAKAVSAAVSENGRILASGYQDTGLTHSRTLMPIVEHILKNTDLKLSDMDAIAVAVGPG", "soluble fraction (log2)": 0.22}
{"sequence": "HMKIMSLSERHQKILELLKVNGIVSVNSLSRQLNVSSVTIRKDLGLLEEKKLLYRSHGGAIQID", "soluble fraction (log2)": -0.213}
{"sequence": "HMKINYNEFLRRFLGEKEGDIIEMETGKRIGTHKGYWFHTIGQRKGLGLGGGPWFVIRKDIDENIIYVSHG", "soluble fraction (log2)": -0.643}
{"sequence": "HMKIPGIGDVYAILARVYSGPQFTWIEAGFPEDDTKAYSYLHTAIRKGSAIAILQAMRTSGALTPTIEKE", "soluble fraction (log2)": -0.457}
{"sequence": "HMKIPPIMFVRAIMVAGRQSMAIMDIEGVGTGIIVRSGYSFSNGEGKVVRIGPDKVTVNWSGKHLDLAPG", "soluble fraction (log2)": -0.121}
{"sequence": "HMKIPQFAVIKQYLEQQIKTAQWAPGRQIPTEQSLADTFSVSRMTARRAVQQLADAGLLERTQGSGTFVAD", "soluble fraction (log2)": -0.053}
{"sequence": "HMKISDTITEKILTDNNFSMELAKKIGIQQGSLLSSIRRNRDSRILRLWEAVMFYKEQGYTEEEIFTDY", "soluble fraction (log2)": -0.864}
{"sequence": "HMKISELAKKVIASGRVTQWAKHPHIYFVNGMRKVAIELDVNGVFSISMRYYPYDPADRELVENLIRGD", "soluble fraction (log2)": -0.572}
{"sequence": "HMKIVQHQLQLPVHVAGKFKGMFYKSDFVMSEDYDDDGNMILAVRLPLVDWNKFLKRTDNELSQYIKVTP", "soluble fraction (log2)": -1.53}
{"sequence": "HMKKALTAEQEARVRELYFRGINYYSANRYQDAIAEWRKVLAIDPNHEKAKNNIRQTLILLK", "soluble fraction (log2)": -0.123}
{"sequence": "HMKKDNLKKIKSIDEDIENELFKLGIYHFEQISIWSSKNAEWIENFLNLPNYVRANQWVEQAKILK", "soluble fraction (log2)": -0.885}
{"sequence": "HMKKDRKKMLKEGIVLFEKILRGMELSPTSEPLKKVLTSFNIQNKEDLYVKLGAGVISSEEVIKELKKK", "soluble fraction (log2)": "≥ 0.43"}
{"sequence": "HMKKILIVTNRSAGMVVYTIPEEGIRREFTPGETKKIPFEELEKLAYLSGGRTLMENFLKIVDTETTEELG", "soluble fraction (log2)": -1.44}
{"sequence": "HMKKIYEEVSEAILTMIKNGTLKPGDKLLPVHQLAEQFQVGRSAVREALSALRAMGLIEMKQGEGTYVKNF", "soluble fraction (log2)": -0.6}
{"sequence": "HMKKKVDSENLLLDILKQMQPQASTNVLRKMLTNQRISVDDQIIHRAKHVVQEGQTVEIHPKP", "soluble fraction (log2)": 0.139}
{"sequence": "HMKKLPEKFDYNEISGLRIEAQQKLNEFQPLNIGQASRISGVTPADISVLLVYLEQLKYSNPDLFFKLNPD", "soluble fraction (log2)": -0.743}
{"sequence": "HMKKLTAEEIQEAKDILEKIQEIPNFKKIFGDDTIKALENSTKTGVLLPDNIISKIHTLMIRFGIK", "soluble fraction (log2)": -0.248}
{"sequence": "HMKKMEEEFALFNAWVDRRLGIPLAAYKENQMQRRILTIMENSGAKTLREYQQLIEGDEGVRAAFLAHIT", "soluble fraction (log2)": -1.76}
{"sequence": "HMKKPIYLTIANDIEKKIFNNDYPKNERLPSERNLAEEYGVTRMTIRNSIEYLVSKGLLEKRLGSGNYVKR", "soluble fraction (log2)": "≥ 0.43"}
{"sequence": "HMKKPLEYIDVDKREDFPPVPNGMRYIHFYGGTKNYRAYIAPEDISRADFMEQYPEYVPEHN", "soluble fraction (log2)": 0.0177}
{"sequence": "HMKKSTLLLFFLKELLEGKKISLKSFALENDINIRTAQRYIEDIEEAFPDNLLKENDFYSFV", "soluble fraction (log2)": -1.05}
{"sequence": "HMKKTETVRFTTNVTHGTKIKETDVEVVKISNSALPDKVVKNKTEVIGKYATADLFKGDFATENKVTD", "soluble fraction (log2)": 0.192}
{"sequence": "HMKKTIIVHVVGEVNTPGIVELNEGARIIDAINGAGGKTEEADMSKINLAYVIEDGSQIYVPSIYE", "soluble fraction (log2)": -1.08}
{"sequence": "HMKKTITISNYINVRDFATMSELPVNSILSVLMKNGIFVSLNEKIDFDTAWLVGSELGLEVKQKQG", "soluble fraction (log2)": -0.818}
{"sequence": "HMKKYEFIEDLPGVGPATAQKLRDLGYHTVESLAMATARELEPIGVGEKKAFSMIEAARSAIGFS", "soluble fraction (log2)": 0.00186}
{"sequence": "HMKKYISEEQAKQAALETAGGGSVVKIKFTTDDGIKVYEIDIINGNYEYEITVHAETGKILDVDKERIH", "soluble fraction (log2)": -0.404}
{"sequence": "HMKLELSNDFYNKIRLARKENGLTQEDLAEKLNMKVGVIQKIENGVRQTDSNLMKISKFLGVEIYVE", "soluble fraction (log2)": -0.303}
{"sequence": "HMKLPNGYGGIAKLSGKRRNPWRVRVTKGWSVDEQTGKAKQLFSTLGYYPTRKDALAALSAYNQNP", "soluble fraction (log2)": 0.22}
{"sequence": "HMKLRLGVNIDPVATVRNARGSAYPDPVRAAIIAQEAGADGITAHLREDRRHIVDQDITSIIKAIDIPLNF", "soluble fraction (log2)": -0.0902}
{"sequence": "HMKLRSIQEQVQYLEKVDNQKAMQIILNMNDKASAVQILRNMKKEKAAAILAQMDPLQAAQILEDLA", "soluble fraction (log2)": -0.132}
{"sequence": "HMKLSDDIIVDTIKEIIEENKNMIEQRKMGAMGPLMGKAMAKFKGKADGQTVSNVIKDEILNIIN", "soluble fraction (log2)": 0.0647}
{"sequence": "HMKLSIEDLAAELIRKIEAGDIGNEQGKMPSERELLAIYPVSRYTLRQALNKLSKMGWIYQMQGRGSYIRF", "soluble fraction (log2)": -0.83}
